The values below come from PMC8401544, “Cytotoxicity of Frutalin on Distinct Cancer Cells Is Independent of Its Glycosylation” (Molecules, 2021).

This data set concerns the molecule itself. The data set can be described thus: dynamic light scattering; protein at 0.8-1.0 mg/mL in phosphate buffer, room temperature, filtered through 0.45 um; size distribution by intensity; measured diameter compared with that expected from the theoretical MW of a tetramer.

What is called stoichiometry N is a count of units in the complex or per binding partner.

B1: Frutalin produced in E. coli cleaved from TrxFTL (cFTL) (natural protein, Artocarpus incisa)
chain: GAMGNQQSGKSQTVIVGPWGAKVSTSSNGKAFDDGAFTGIREINLSYNKETAIGDFQVVYDLNGSPYVGQNHKSFITGFTPVKISLDFPSEYIMEVSGYTGNVSGYVVVRSLTFKTNKKTYGPYGVTSGTPFNLPIENGLIVGFKGSIGYWLDYFSMYLSL
notes: residues left after TEV cleavage (GA) and MG from the cloning restriction site; not glycosylated; 17421.61 Da by calculation; also called cleaved FTL; FTL cleaved from TrxFTL; source: E. coli BL21(DE3) (NZYBL21), purified (IMAC, TEV digestion, reverse IMAC on Ni-NTA); not shown: TrxA, N-terminal, cleaved; His6, N-terminal, cleaved
For the protein B1, the “stoichiometry N” value was determined as 4.

B2: Frutalin produced in E. coli in fusion with TrxA (TrxFTL) (natural protein, Artocarpus incisa)
chain: SSGENLYFQGAMGNQQSGKSQTVIVGPWGAKVSTSSNGKAFDDGAFTGIREINLSYNKETAIGDFQVVYDLNGSPYVGQNHKSFITGFTPVKISLDFPSEYIMEVSGYTGNVSGYVVVRSLTFKTNKKTYGPYGVTSGTPFNLPIENGLIVGFKGSIGYWLDYFSMYLSL
notes: 13 extra amino acids between the 6xHistag and frutalin; not glycosylated; Vector pETM20; also called FTL in fusion with TrxA; source: E. coli BL21(DE3) (NZYBL21), purified (IMAC, Nickel HisTrap); not shown: TrxA, N-terminal, kept; His6, internal (between TrxA and the TEV recognition site), kept
On to B2, for which the “stoichiometry N” value came to 4.
